Data published in the Immune Epitope Database (IEDB).

The sequences below were run against HLA-A*02:01 (assay: IEDB peptide-MHC binding, purified MHC/competitive/radioactivity; ≥ and ≤ were set here for values at or beyond the usual limits of such assays). Details: source organism: Homo sapiens.
Sequence LLGICLTSTV has an IC50 of 102 nM.
With KVAELVHFLL the IC50 was 55.6 nM.
In the case of GIMIGVLVGV, the IC50 is reported as 36.8 nM.
With KMVELVHFL the IC50 was 9.8 nM.
In the case of ALCRWGLLLA, the IC50 is reported as 139 nM.
For KIWEELSML, the IC50 was 167 nM.
Work on HLFIYATCLGL yielded an IC50 of 54.3 nM.
